Consider 54 molecules from publication PMC314469, “Protein Interaction Networks by Proteome Peptide Scanning” (PLoS Biology, 2004).

This test concerns the target T1, Myo5 SH3 (MYO5_YEAST), Q04439.
T1 chain: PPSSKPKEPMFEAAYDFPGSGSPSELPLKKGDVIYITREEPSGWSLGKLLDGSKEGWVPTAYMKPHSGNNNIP
Put plainly: SPOT array.
As for RFHVFSEPILPSVA [YOR160W 693-706], the normalised SPOT signal, Boehringer light units (BLU); mean over the file's lines of this peptide was found to be 158.

In turn, SENRLRTPLKPLVN [YGL021W 219-232] returned a normalised SPOT signal, Boehringer light units (BLU); mean over the file's lines of this peptide of 272.

Turning to SAYYLGLPVTPEDM [YOL057W 181-194], the normalised SPOT signal, Boehringer light units (BLU); mean over the file's lines of this peptide turned out to be 215.

PPPPMGQPKDPKFE [YKL129C 1112-1125] registered a normalised SPOT signal, Boehringer light units (BLU); mean over the file's lines of this peptide of 248.

SFDYLFHPFVPSTI [YPR039W 3-16] came in with a normalised SPOT signal, Boehringer light units (BLU); mean over the file's lines of this peptide of 23.1.

SASTMAAPVHPQQQ [YMR002W 21-34] registered a normalised SPOT signal, Boehringer light units (BLU); mean over the file's lines of this peptide of 164.

Regarding QPQHLPPPPPPRAQ [YOR329C 661-674], the normalised SPOT signal, Boehringer light units (BLU); mean over the file's lines of this peptide was found to be 76200.

On to RLLALFIPALPFII [YEL065W 193-206], for which the normalised SPOT signal, Boehringer light units (BLU); mean over the file's lines of this peptide turned out to be 265.

As to QELPMEVPKEPAPA [YLR399C 121-134], the normalised SPOT signal, Boehringer light units (BLU); mean over the file's lines of this peptide worked out at 139.

QELRFLVPLVPLLV [YOR149C 314-327] gave a normalised SPOT signal, Boehringer light units (BLU); mean over the file's lines of this peptide of 119.

For RLSLLRSPKAPDAH [YGL156W 915-928], the normalised SPOT signal, Boehringer light units (BLU); mean over the file's lines of this peptide was determined as 442.

As for QENPYIIPLPPSST [YBR212W 12-25], the normalised SPOT signal, Boehringer light units (BLU); mean over the file's lines of this peptide was 240.

With QPAQFMPPQDPAAA [YIL109C 25-38], the normalised SPOT signal, Boehringer light units (BLU); mean over the file's lines of this peptide came to 134.

Molecule RLNSFAPPPNPYAT [YDL195W 847-860] came in with a normalised SPOT signal, Boehringer light units (BLU); mean over the file's lines of this peptide of 274.

The molecule RLQKLDDPKSPYQS [YDL205C 162-175] returned a normalised SPOT signal, Boehringer light units (BLU); mean over the file's lines of this peptide of 127.

Consider SATGWLKPAVPIQW [YGL065C 374-387], for which the normalised SPOT signal, Boehringer light units (BLU); mean over the file's lines of this peptide was found to be 94.6.

Take QLIGFGNPKNPFAL [YIL151C 523-536]: the normalised SPOT signal, Boehringer light units (BLU); mean over the file's lines of this peptide was determined as 46.1.

QPTNFQYPPPPFGQ [YNL124W 379-392] returned a normalised SPOT signal, Boehringer light units (BLU); mean over the file's lines of this peptide of 224.

Molecule PLTTLPPPRLPSIQ [YCR033W 1026-1039] returned a normalised SPOT signal, Boehringer light units (BLU); mean over the file's lines of this peptide of 2790.

Molecule PPMAYNRPVYPPPQ [YOR197W 87-100] displayed a normalised SPOT signal, Boehringer light units (BLU); mean over the file's lines of this peptide of 6720.

Turning to QPQAYHLPGNPYST [YNL278W 921-934], the normalised SPOT signal, Boehringer light units (BLU); mean over the file's lines of this peptide was 187.

In turn, QFSPMDDPKSPTPM [YCL029C 108-121] returned a normalised SPOT signal, Boehringer light units (BLU); mean over the file's lines of this peptide of 121.

On to PPKLLVYPESPETN [YBR279W 23-36], for which the normalised SPOT signal, Boehringer light units (BLU); mean over the file's lines of this peptide turned out to be 91.3.

The molecule SANNYPFPQQPNGM [YNL124W 356-369] had a normalised SPOT signal, Boehringer light units (BLU); mean over the file's lines of this peptide of 79.6.

As to SAFPYVFPLPPWIP [YFL006W 181-194], the normalised SPOT signal, Boehringer light units (BLU); mean over the file's lines of this peptide came out at 13000.

In turn, SETSHHSPSAPFQR [YLL016W 216-229] registered a normalised SPOT signal, Boehringer light units (BLU); mean over the file's lines of this peptide of 257.

REFEFIIPVFPVIS [YDL233W 197-210] had a normalised SPOT signal, Boehringer light units (BLU); mean over the file's lines of this peptide of 163.

For the molecule QASMLRRPSLPHID [YKR077W 284-297], the normalised SPOT signal, Boehringer light units (BLU); mean over the file's lines of this peptide amounted to 1100.

With SELTFIAPTQPVST [YPL101W 254-267], the normalised SPOT signal, Boehringer light units (BLU); mean over the file's lines of this peptide stood at 110.

In turn, SAENLIQPTAPIRD [YIR029W 44-57] yielded a normalised SPOT signal, Boehringer light units (BLU); mean over the file's lines of this peptide of 56.4.

The molecule QPAQLQEPQEPLST [YMR148W 78-91] yielded a normalised SPOT signal, Boehringer light units (BLU); mean over the file's lines of this peptide of 126.

SELYYEGPETPTPS [YPL186C 118-131] returned a normalised SPOT signal, Boehringer light units (BLU); mean over the file's lines of this peptide of 50.5.

Molecule QFSGLLEPSLPNNM [YJL046W 318-331] returned a normalised SPOT signal, Boehringer light units (BLU); mean over the file's lines of this peptide of 84.4.

RAAGMDVPIIPGIM [YGL125W 205-218] displayed a normalised SPOT signal, Boehringer light units (BLU); mean over the file's lines of this peptide of 98.2.

As for SENYLVKPTIPGTT [YDL035C 918-931], the normalised SPOT signal, Boehringer light units (BLU); mean over the file's lines of this peptide is 61.5.

RPQWLSYPEQPLNS [YBL088C 912-925] registered a normalised SPOT signal, Boehringer light units (BLU); mean over the file's lines of this peptide of 241.

In the case of RPSKFFHPPIPHIP [YOR235W 5-18], the normalised SPOT signal, Boehringer light units (BLU); mean over the file's lines of this peptide is 777.

Take QLVTLISPYDPNFK [YJR119C 479-492]: the normalised SPOT signal, Boehringer light units (BLU); mean over the file's lines of this peptide amounted to 178.

The molecule PPQTHQSPPPPPQQ [YBR289W 73-86] returned a normalised SPOT signal, Boehringer light units (BLU); mean over the file's lines of this peptide of 222.

Molecule QFQKLVPPTLPENV [YIL132C 50-63] registered a normalised SPOT signal, Boehringer light units (BLU); mean over the file's lines of this peptide of 154.

Regarding PPPPPPPPPVPA [YNL271C 1240-1251], the normalised SPOT signal, Boehringer light units (BLU); mean over the file's lines of this peptide came out at 95700.

Consider PPPPLPPPLFPSSS [YER033C 119-132], for which the normalised SPOT signal, Boehringer light units (BLU); mean over the file's lines of this peptide was found to be 38500.

RLTNFEVPSLPTFH [YIL037C 447-460]: the normalised SPOT signal, Boehringer light units (BLU); mean over the file's lines of this peptide was 319.

Take PPPDFNDPTAPLSS [YGL014W 93-106]: the normalised SPOT signal, Boehringer light units (BLU); mean over the file's lines of this peptide is 153.

For the molecule PPEGFPEPLNPTNF [YIL005W 29-42], the normalised SPOT signal, Boehringer light units (BLU); mean over the file's lines of this peptide was 86.

Consider REDAHEDPVSPKAG [YOL082W 127-140], for which the normalised SPOT signal, Boehringer light units (BLU); mean over the file's lines of this peptide stood at 145.

In the case of RLFDLVKPKNPKFS [YLR086W 763-776], the normalised SPOT signal, Boehringer light units (BLU); mean over the file's lines of this peptide was determined as 441.

In turn, REVDLPIPAQPGPP [YDR236C 34-47] had a normalised SPOT signal, Boehringer light units (BLU); mean over the file's lines of this peptide of 114.

REASLDIPYKPIIA [YFL011W 32-45] displayed a normalised SPOT signal, Boehringer light units (BLU); mean over the file's lines of this peptide of 176.

The molecule QEISLIDPSTPDKA [YGR083C 349-362] showed a normalised SPOT signal, Boehringer light units (BLU); mean over the file's lines of this peptide of 155.

For the molecule QLRSLFKPFGPILN [YBR212W 375-388], the normalised SPOT signal, Boehringer light units (BLU); mean over the file's lines of this peptide was found to be 370.

In turn, RPPSHSAPYIPRSS [YDR132C 184-197] showed a normalised SPOT signal, Boehringer light units (BLU); mean over the file's lines of this peptide of 47400.

Turning to PPLDFEQPRLPSTA [YAL017W 90-103], the normalised SPOT signal, Boehringer light units (BLU); mean over the file's lines of this peptide turned out to be 192.

In turn, RLWLYAAPKRPKTF [YMR156C 129-142] had a normalised SPOT signal, Boehringer light units (BLU); mean over the file's lines of this peptide of 845.
